# Reference: patent US20260265379A1 (IMCHECK THERAPEUTICS, published 2026)
# B1: bsAb001 (bispecific antibody, human IgG1, kappa)
# heavy: QVQLVQSGAEVKKPGASVKLSCKASGYIFTRYYMYWVKQRPGQGLEWIGEINPNNGGTKFNEKFKNRATLTVDKSISTAYMELSRLRSDDTAVYYCSREDDYDGTPFAMDYWGQGTLVTVSSASTKGPSVFPLAPSSKSTSGGTAALGCLVKDYFPEPVTVSWNSGALTSGVHTFPAVLQSSGLYSLSSVVTVPSSSLGTQTYICNVNHKPSNTKVDKRVEPKSCDKTHTCPPCPAPEFEGGPSVFLFPPKPKDTLMISRTPEVTCVVVDVSHEDPEVKFNWYVDGVEVHNAKTKPREEQYNSTYRVVSVLTVLHQDWLNGKEYKCKVSNKALPASIEKTISKAKGQPREPQVYTLPPSREEMTKNQVSLTCLVKGFYPSDIAVEWESNGQPENNYKTTPPVLDSDGSFFLYSKLTVDKSRWQQGNVFSCSVMHEALHNHYTQKSLSLSPGGGGGSGGGGSGGGGSGGGGSQVQLVQSGVEVKKPGASVKVSCKASGYTFTNYYMYWVRQAPGQGLEWMGGINPSNGGTNFNEKFKNRVTLTTDSSTTTAYMELKSLQFDDTAVYYCARRDYRFDMGFDYWGQGTTVTVSSGGGGSGGGGSGGGGSGGGGSEIVLTQSPATLSLSPGERATLSCRASKGVSTSGYSYLHWYQQKPGQAPRLLIYLASYLESGVPARFSGSGSGTDFTLTISSLEPEDFAVYYCQHSRDLPLTFGGGTKVEIK
# light: not shown
# notes: IgG anti-BTN3A, scFv anti-PD-1 (VH-VL) at heavy chain C-terminus
# B2: bsAb042 (bispecific antibody)
# heavy 1: QVQLVQSGVEVKKPGASVKVSCKASGYTFTNYYMYWVRQAPGQGLEWMGGINPSNGGTNFNEKFKNRVTLTTDSSTTTAYMELKSLQFDDTAVYYCARRDYRFDMGFDYWGQGTTVTVSS
# heavy 2: QVQLVQSGAEVKKPGASVKLSCKASGYIFTRYYMYWVKQRPGQGLEWIGEINPNNGGTKFNEKFKNRATLTVDKSISTAYMELSRLRSDDTAVYYCSREDDYDGTPFAMDYWGQGTLVTVSSGGGGSGGGGSGGGGSGGGGSDIQMTQSPSSLSASVGDRVTITCHASQNINVWLSWYQQKPGKAPKLLIYKASNLHTGVPSRFTGSGSGTDFTFTISSLQPEDIATYYCQQGQTYPYTFGQGTKLEIKGGGGSGGGGSGGGGSGGGGS
# light: EIVLTQSPATLSLSPGERATLSCRASKGVSTSGYSYLHWYQQKPGQAPRLLIYLASYLESGVPARFSGSGSGTDFTLTISSLEPEDFAVYYCQHSRDLPLTFGGGTKVEIKRTVAAPSVFIFPPSDEQLKSGTASVVCLLNNFYPREAKVQWKVDNALQSGNSQESVTEQDSKDSTYSLSSTLTLSKADYEKHKVYACEVTHQGLSSPVTKSFNRGECGGGGSGGGGSGGGGSGGGGSDIQMTQSPSSLSASVGDRVTITCHASQNINVWLSWYQQKPGKAPKLLIYKASNLHTGVPSRFTGSGSGTDFTFTISSLQPEDIATYYCQQGQTYPYTFGQGTKLEIKGGGGSGGGGSGGGGSGGGGSQVQLVQSGAEVKKPGASVKLSCKASGYIFTRYYMYWVKQRPGQGLEWIGEINPNNGGTKFNEKFKNRATLTVDKSISTAYMELSRLRSDDTAVYYCSREDDYDGTPFAMDYWGQGTLVTVSS
# notes: one Fab arm anti-PD-1, two scFv anti-BTN3A; not shown: IgG1 CH1-hinge-CH2-CH3; CH2-CH3 (Fc)
# B3: bsAb014 (bispecific antibody)
# heavy: QVQLVQSGAEVKKPGASVKLSCKASGYIFTRYYMYWVKQRPGQGLEWIGEINPNNGGTKFNEKFKNRATLTVDKSISTAYMELSRLRSDDTAVYYCSREDDYDGTPFAMDYWGQGTLVTVSSASTKGPSVFPLAPSSKSTSGGTAALGCLVKDYFPEPVTVSWNSGALTSGVHTFPAVLQSSGLYSLSSVVTVPSSSLGTQTYICNVNHKPSNTKVDKRVEPKSCDKTHTCPPCPAPEFEGGPSVFLFPPKPKDTLMISRTPEVTCVVVDVSHEDPEVKFNWYVDGVEVHNAKTKPREEQYNSTYRVVSVLTVLHQDWLNGKEYKCKVSNKALPASIEKTISKAKGQPREPQVYTLPPSREEMTKNQVSLTCLVKGFYPSDIAVEWESNGQPENNYKTTPPVLDSDGSFFLYSKLTVDKSRWQQGNVFSCSVMHEALHNHYTQKSLSLSPG
# light: not shown
# notes: IgG anti-BTN3A, scFv anti-PD-1
# B4: ICT01 (antibody, V domains shown)
# VH: QVQLVQSGAEVKKPGASVKLSCKASGYIFTRYYMYWVKQRPGQGLEWIGEINPNNGGTKFNEKFKNRATLTVDKSISTAYMELSRLRSDDTAVYYCSREDDYDGTPFAMDYWGQGTLVTVSS
# VL: DIQMTQSPSSLSASVGDRVTITCHASQNINVWLSWYQQKPGKAPKLLIYKASNLHTGVPSRFTGSGSGTDFTFTISSLQPEDIATYYCQQGQTYPYTFGQGTKLEIK
# notes: also called anti-BTN3A mAb; mAb 7.2
# B5: bsAb003 (bispecific antibody, human IgG1, kappa)
# heavy: QVQLVQSGAEVKKPGASVKLSCKASGYIFTRYYMYWVKQRPGQGLEWIGEINPNNGGTKFNEKFKNRATLTVDKSISTAYMELSRLRSDDTAVYYCSREDDYDGTPFAMDYWGQGTLVTVSSASTKGPSVFPLAPSSKSTSGGTAALGCLVKDYFPEPVTVSWNSGALTSGVHTFPAVLQSSGLYSLSSVVTVPSSSLGTQTYICNVNHKPSNTKVDKRVEPKSCDKTHTCPPCPAPEFEGGPSVFLFPPKPKDTLMISRTPEVTCVVVDVSHEDPEVKFNWYVDGVEVHNAKTKPREEQYNSTYRVVSVLTVLHQDWLNGKEYKCKVSNKALPASIEKTISKAKGQPREPQVYTLPPSREEMTKNQVSLTCLVKGFYPSDIAVEWESNGQPENNYKTTPPVLDSDGSFFLYSKLTVDKSRWQQGNVFSCSVMHEALHNHYTQKSLSLSPGGGGGSGGGGSGGGGSGGGGSEVQLVESGGGLVQPGGSLRLSCAASGFTFSRYWMSWVRQAPGKGLEWVANIKQDGSEKYYVDSVKGRFTISRDNAKNSLYLQMNSLRAEDTAVYYCAREGGWFGELAFDYWGQGTLVTVSSGGGGSGGGGSGGGGSGGGGSEIVLTQSPGTLSLSPGERATLSCRASQRVSSSYLAWYQQKPGQAPRLLIYDASSRATGIPDRFSGSGSGTDFTLTISRLEPEDFAVYYCQQYGSLPWTFGQGTKVEIK
# light: not shown
# notes: IgG anti-BTN3A, scFv anti-PD-L1 (VH-VL) at heavy chain C-terminus
# B6: bsAb018 (bispecific antibody)
# heavy: EIVLTQSPATLSLSPGERATLSCRASKGVSTSGYSYLHWYQQKPGQAPRLLIYLASYLESGVPARFSGSGSGTDFTLTISSLEPEDFAVYYCQHSRDLPLTFGGGTKVEIKGGGGSGGGGSGGGGSGGGGSQVQLVQSGVEVKKPGASVKVSCKASGYTFTNYYMYWVRQAPGQGLEWMGGINPSNGGTNFNEKFKNRVTLTTDSSTTTAYMELKSLQFDDTAVYYCARRDYRFDMGFDYWGQGTTVTVSSGGGGSGGGGSGGGGSGGGGSQVQLVQSGAEVKKPGASVKLSCKASGYIFTRYYMYWVKQRPGQGLEWIGEINPNNGGTKFNEKFKNRATLTVDKSISTAYMELSRLRSDDTAVYYCSREDDYDGTPFAMDYWGQGTLVTVSSASTKGPSVFPLAPSSKSTSGGTAALGCLVKDYFPEPVTVSWNSGALTSGVHTFPAVLQSSGLYSLSSVVTVPSSSLGTQTYICNVNHKPSNTKVDKRVEPKSCDKTHTCPPCPAPEFEGGPSVFLFPPKPKDTLMISRTPEVTCVVVDVSHEDPEVKFNWYVDGVEVHNAKTKPREEQYNSTYRVVSVLTVLHQDWLNGKEYKCKVSNKALPASIEKTISKAKGQPREPQVYTLPPSREEMTKNQVSLTCLVKGFYPSDIAVEWESNGQPENNYKTTPPVLDSDGSFFLYSKLTVDKSRWQQGNVFSCSVMHEALHNHYTQKSLSLSPG
# light: not shown
# notes: as for B3
# B7: bsAb026 (bispecific antibody)
# heavy: QVQLVQSGAEVKKPGASVKLSCKASGYIFTRYYMYWVKQRPGQGLEWIGEINPNNGGTKFNEKFKNRATLTVDKSISTAYMELSRLRSDDTAVYYCSREDDYDGTPFAMDYWGQGTLVTVSSASTKGPSVFPLAPSSKSTSGGTAALGCLVKDYFPEPVTVSWNSGALTSGVHTFPAVLQSSGLYSLSSVVTVPSSSLGTQTYICNVNHKPSNTKVDKRVEPKSCDKTHTCPPCPAPEFEGGPSVFLFPPKPKDTLMISRTPEVTCVVVDVSHEDPEVKFNWYVDGVEVHNAKTKPREEQYNSTYRVVSVLTVLHQDWLNGKEYKCKVSNKALPASIEKTISKAKGQPREPQVYTLPPSREEMTKNQVSLTCLVKGFYPSDIAVEWESNGQPENNYKTTPPVLDSDGSFFLYSKLTVDKSRWQQGNVFSCSVMHEALHNHYTQKSLSLSPGGGGGSGGGGSGGGGSGGGGSQVQLVQSGVEVKKPGASVKVSCKASGYTFTNYYMYWVRQAPGQGLEWMGGINPSNGGTNFNEKFKNRVTLTTDSSTTTAYMELKSLQFDDTAVYYCARRDYRFDMGFDYWGQGTTVTVSSASTKGPSVFPLAPSSKSTSGGTAALGCLVKDYFPEPVTVSWNSGALTSGVHTFPAVLQSSGLYSLSSVVTVPSSSLGTQTYICNVNHKPSNTKVDKKVEPKSCDKTHTGGSSGSGSGSTGTSSSGTGTSAGTTGTSASTSGSGSGGGGGSGGGGSAGGEIVLTQSPATLSLSPGERATLSCRASKGVSTSGYSYLHWYQQKPGQAPRLLIYLASYLESGVPARFSGSGSGTDFTLTISSLEPEDFAVYYCQHSRDLPLTFGGGTKVEIKRTVAAPSVFIFPPSDEQLKSGTASVVCLLNNFYPREAKVQWKVDNALQSGNSQESVTEQDSKDSTYSLSSTLTLSKADYEKHKVYACEVTHQGLSSPVTKSFNRGEC
# light: not shown
# notes: IgG anti-BTN3A, scFab anti-PD-1; formula printed IgG(H)-VH-CH1-linker1-VL-CL-linker2-
# Target: T1, BTN3A1 at the surface of HEK-BTN3A1 cells (human, UniProt O00481 30-513)
# T1 construct: HEK 293T BTN2A/BTN3A KO cells transduced with a BTN3A1 expressing vector
# Test: flow cytometry, HEK-BTN3A1 cells
# T1 sequence (O00481 30-513 limits assumed): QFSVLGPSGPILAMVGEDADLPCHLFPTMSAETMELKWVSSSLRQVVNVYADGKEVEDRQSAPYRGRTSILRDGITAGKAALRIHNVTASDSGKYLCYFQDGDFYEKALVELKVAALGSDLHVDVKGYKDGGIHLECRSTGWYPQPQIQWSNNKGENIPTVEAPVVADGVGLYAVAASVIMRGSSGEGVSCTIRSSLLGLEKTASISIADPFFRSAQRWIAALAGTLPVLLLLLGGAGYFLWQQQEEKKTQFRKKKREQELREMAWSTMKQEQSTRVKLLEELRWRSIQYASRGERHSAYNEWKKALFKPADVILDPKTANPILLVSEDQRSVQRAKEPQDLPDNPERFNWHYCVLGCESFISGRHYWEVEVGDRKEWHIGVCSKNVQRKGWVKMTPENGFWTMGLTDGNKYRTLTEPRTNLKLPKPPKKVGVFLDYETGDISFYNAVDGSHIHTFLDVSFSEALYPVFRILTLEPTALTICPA
Binder,MFI at 10 nM [MFI],MFI at 100 nM [MFI]
B1,507000,710000
B2,824000,1.24e+06
B3,464000,812000
B4,1.01e+06,1.82e+06
B5,500000,950000
B6,502000,1.08e+06
B7,410000,1.03e+06

# Target: T2, recombinant human BTN3A1 (human, UniProt O00481 30-254)
# T2 construct: Soluble form of the antigen used in SPR; also called rhBTN3A1; recombinant BTN3A1 protein
# Test: SPR
# Procedure: SPR measures the interactions between two or more biomolecules. In capture kinetics analysis, an antibody is immobilized onto a gold-plated prism. The immobilized antibody is referred to as the ligand. An injection of antigen, referred to as the analyte, is carried out, often as a concentration series. The captured analytes are removed from the sensor chip surface using a regenerating agent, for example a low pH or high ionic strength solution. If investigating binding to several analytes, the antibodies are recaptured from solution before each analyte titration series. The instrument records the changes in refractive indexes (due to the accumulation or depletion of mass) in time and plots the results as sensorgrams.
# Affinity measurements with respect to BTN3A, PD-1 and PD-L1 were performed by SPR technology, for instance in a Carterra LSA Platform instrument using a soluble form of the antigen as the analyte and the antibody as the ligand. Binding was also assessed through in cellulo binding assays, on cell lines (e.g. HEK293T cells) genetically modified to express the targets of interest or genetically modified to extinct target expression.
# The 69 produced bsAbs and control mAbs were also evaluated for their binding affinity to recombinant proteins by SPR assays. The equilibrium dissociation constant (KD) was then calculated for constructs showing detectable binding.
# T2 sequence (O00481 30-254 limits assumed): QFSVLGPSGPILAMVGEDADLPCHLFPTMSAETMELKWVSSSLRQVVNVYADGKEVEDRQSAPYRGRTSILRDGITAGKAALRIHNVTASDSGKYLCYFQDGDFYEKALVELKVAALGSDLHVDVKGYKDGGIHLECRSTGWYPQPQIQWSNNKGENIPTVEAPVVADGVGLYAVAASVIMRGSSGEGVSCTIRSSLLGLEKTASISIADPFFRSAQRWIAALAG
row,Binder,Kd [nM]
1,B2,0.093
2,B3,0.083
3,B4,0.073
4,B5,0.073
5,B6,0.212
6,B7,0.068

# Target: T3, PD-L1 at the surface of transduced cells (UniProt Q9NZQ7 19-290, limits assumed)
# T3 construct: whole, on cells; CHO-PD-L1 cells in flow cytometry, Raji-PD-L1 cells in the reporter assay; also called CHO-PD-L1; Raji-PD-L1
# Test: flow cytometry, CHO-PD-L1 cells
# T3 sequence (Q9NZQ7 19-290 limits assumed): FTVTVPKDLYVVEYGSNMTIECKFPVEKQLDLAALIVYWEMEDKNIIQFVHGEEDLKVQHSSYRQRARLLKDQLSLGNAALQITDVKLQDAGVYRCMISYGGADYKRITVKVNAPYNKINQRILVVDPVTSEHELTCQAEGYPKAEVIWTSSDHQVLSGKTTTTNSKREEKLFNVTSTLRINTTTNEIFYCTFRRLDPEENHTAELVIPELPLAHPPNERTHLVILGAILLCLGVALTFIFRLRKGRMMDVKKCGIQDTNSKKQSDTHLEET
row,Binder,MFI at 10 nM [MFI]
1,B5,722000

# Target: T4, PD-1 at the surface of Jurkat-PD-1 cells (human, UniProt Q15116 25-288)
# T4 construct: whole, on cells
# Test: flow cytometry, Jurkat-PD-1 cells
# T4 sequence (Q15116 25-288): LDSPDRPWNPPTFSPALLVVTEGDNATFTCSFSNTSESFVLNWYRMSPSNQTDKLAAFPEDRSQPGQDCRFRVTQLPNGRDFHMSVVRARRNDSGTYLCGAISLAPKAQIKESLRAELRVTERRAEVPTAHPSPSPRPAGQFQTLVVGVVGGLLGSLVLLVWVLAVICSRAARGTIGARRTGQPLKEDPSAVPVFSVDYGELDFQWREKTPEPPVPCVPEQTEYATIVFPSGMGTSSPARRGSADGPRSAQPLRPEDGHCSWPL
Binder,MFI at 10 nM [MFI],MFI at 100 nM [MFI]
B1,179000,396000
B2,212000,362000
B3,165000,290000
B6,,347000
B7,73300,257000

# Target: T4, PD-1 at the surface of Jurkat-PD-1 cells
# Test: cell-based or functional assay
Binder,Jurkat-PD-1 activation at 10 nM,Jurkat-PD-1 activation at 100 nM
B1,8 fold-change to medium,
B3,5.9 fold-change to medium,1.9 fold-change to medium

# Target: T3, PD-L1 at the surface of transduced cells
# Test: cell-based or functional assay
Binder,Jurkat-PD-1 activation at 10 nM,Jurkat-PD-1 activation at 100 nM
B5,8.5 fold-change to medium,6.9 fold-change to medium
